± gives the uncertainty stated by the source.
Assay: self-splicing fitness, log relative to wild type (ln ratio); higher = more splicing; Tetrahymena group I intron in knt gene, E. coli kanamycin selection, DiMSum; sequences stand for … in CUCUCU…GGAGGGAAAAGUUAUCAGGCAUGCACCUGGUAGCUAGUCUUUAAACCAAUAGAUUGCAUCGGUUUAAAAGGCAAGACCGUCAAAUUGCGGGAAAGGGGUCAACAGCCGUUCAGUACCAAGUCUCAGGGGAAACUUUGAGAUGGCCUUGCAAAGGGUAUGGUAAUAAGCUGACGGACAUGGUCCUAACCACGCAGCCAAGUCCUAAGUCAACAGAUCUUCUGUUGAUAUGGAUGCAGUUCACAGACUAAAUGUCGGUCGGGGAAGAUGUAUUCUUCUCAUAAGAUAUAGUCGGACCUCUCCUUAAUGGGAGCUAGCGGAUGAAGUGAUGCAACACUGGAGCCGCUGGGAACUAAUUUGUAUGCGAAAGUAUAUUGAUUAGUUUUGGAGUACUCGUGGUCG
Method in brief: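 DiMSum derived fitness as the error-weighted combination of fold changes across replicates, kanamycin versus no kanamycin, normalised to wild type. E. coli BL21(DE3) held the library, which randomised all eight P1ex-region intron nucleotides within the knt kanamycin-resistance gene on pET-22b(+). Six replicate transformations grew overnight at 37°C or 30°C on LB agar with or without 25 μg/mL kanamycin, also containing 100 μg/mL carbenicillin, 50 μM IPTG and 0.2% rhamnose, and pooled colonies were amplicon-sequenced on an Illumina HiSeq 2500.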

Sequence | self-splicing fitness (ln) (30 °C) | self-splicing fitness (ln) (37 °C)
GGCCAGCAAUAUUACGAUUG | -3.73 ± 0.2 | -1.74 ± 0.16
GGCCAGCAAUAUUACGCAAA | -3.09 ± 0.24 | -1.02 ± 0.12
GGCCAGCAAUAUUACGCAAU | -1.17 ± 0.098 | -1.2 ± 0.09
GGCCAGCAAUAUUACGCAGA | -1.66 ± 0.082 | -1.28 ± 0.08
GGCCAGCAAUAUUACGCAUC | -0.0388 ± 0.15 | 0.0683 ± 0.16
GGCCAGCAAUAUUACGCCUC | -0.497 ± 0.13 | -0.06 ± 0.15
GGCCAGCAAUAUUACGCUUU | -0.464 ± 0.064 | 0.4 ± 0.087
GGCCAGCAAUAUUACGGCGG | -0.775 ± 0.1 | -1.53 ± 0.15
GGCCAGCAAUAUUACGGGAG | -2.14 ± 0.13 | -0.796 ± 0.12
GGCCAGCAAUAUUACGGUGU | -0.779 ± 0.058 | -0.114 ± 0.07
GGCCAGCAAUAUUACGUAAG | -1.3 ± 0.084 | -1.25 ± 0.15
GGCCAGCAAUAUUACGUACA | -2.75 ± 0.17 | -1.71 ± 0.15
GGCCAGCAAUAUUACGUCGC | -1.17 ± 0.11 | -0.0357 ± 0.11
GGCCAGCAAUAUUACGUGCU | -3.59 ± 0.15 | -2.52 ± 0.2
GGCCAGCAAUAUUACGUUAA | -3.51 ± 0.29 | -2.62 ± 0.19
GGCCAGCAAUAUUACGUUUU | -1.31 ± 0.065 | -1.22 ± 0.079
GGCGAGCAAUAUUACGAAAC | -2.42 ± 0.15 | -0.0615 ± 0.14
GGCGAGCAAUAUUACGAAUU | -1.66 ± 0.14 | -0.459 ± 0.17
GGCGAGCAAUAUUACGACAC | -1.12 ± 0.19 | -0.253 ± 0.26
GGCGAGCAAUAUUACGACCC | -3.18 ± 0.44 | -1.25 ± 0.5
GGCGAGCAAUAUUACGACCU | -0.951 ± 0.19 | -0.976 ± 0.39
GGCGAGCAAUAUUACGAGAC | -1.31 ± 0.49 | –
GGCGAGCAAUAUUACGAGCA | -1.44 ± 0.25 | -0.374 ± 0.28
GGCGAGCAAUAUUACGAGGU | -3.57 ± 0.36 | -0.907 ± 0.22
GGCGAGCAAUAUUACGCAGU | -1.29 ± 0.43 | -0.76 ± 0.39

Sequence | self-splicing fitness (ln) (30 °C) | self-splicing fitness (ln) (37 °C)
GGCGAGCAAUAUUACGCGGG | – | -2.89 ± 0.38
GGCGAGCAAUAUUACGCUCA | -1.02 ± 0.11 | 0.00865 ± 0.12
GGCGAGCAAUAUUACGCUUA | -1.63 ± 0.15 | -0.623 ± 0.15
GGCGAGCAAUAUUACGCUUG | – | -2.71 ± 0.48
GGCGAGCAAUAUUACGGCCA | -1.39 ± 0.21 | -1.35 ± 0.27
GGCGAGCAAUAUUACGGCCG | -2.11 ± 0.16 | -0.882 ± 0.2
GGCGAGCAAUAUUACGGCUU | -0.682 ± 0.2 | -0.0819 ± 0.35
GGCGAGCAAUAUUACGGGGG | -3.33 ± 0.2 | -2.64 ± 0.28
GGCGAGCAAUAUUACGUAUU | -2.29 ± 0.14 | -0.757 ± 0.12
GGCGAGCAAUAUUACGUCGA | -2.43 ± 0.23 | -0.47 ± 0.15
GGCGAGCAAUAUUACGUGGC | -3.3 ± 0.25 | -1.73 ± 0.25
GGCGAGCAAUAUUACGUUCU | -1.02 ± 0.051 | -0.335 ± 0.07
GGCGAGCAAUAUUACGUUGU | -3.25 ± 0.18 | -2.48 ± 0.25
GGCUAGCAAUAUUACGAAGG | – | -0.668 ± 0.29
GGCUAGCAAUAUUACGACCA | -1.49 ± 0.3 | -1.43 ± 0.31
GGCUAGCAAUAUUACGACCG | -0.745 ± 0.14 | -0.188 ± 0.21
GGCUAGCAAUAUUACGACGG | -3.75 ± 0.37 | -2.18 ± 0.46
GGCUAGCAAUAUUACGAGGA | -1.17 ± 0.17 | -1.47 ± 0.14
GGCUAGCAAUAUUACGAGUC | – | -1.08 ± 0.26
GGCUAGCAAUAUUACGCCGC | -3.44 ± 0.41 | –
GGCUAGCAAUAUUACGCCGU | -1.49 ± 0.11 | -0.833 ± 0.17
GGCUAGCAAUAUUACGCCUC | -1.35 ± 0.18 | -0.927 ± 0.23
GGCUAGCAAUAUUACGCGCU | -2.76 ± 0.25 | -2.42 ± 0.3
GGCUAGCAAUAUUACGCUAU | -1.3 ± 0.11 | 0.0903 ± 0.12
GGCUAGCAAUAUUACGCUGG | -4.2 ± 0.42 | –

Sequence | self-splicing fitness (ln) (30 °C) | self-splicing fitness (ln) (37 °C)
GGCUAGCAAUAUUACGCUUA | -0.872 ± 0.1 | -0.117 ± 0.11
GGCUAGCAAUAUUACGCUUU | -0.428 ± 0.083 | 0.202 ± 0.099
GGCUAGCAAUAUUACGGCGC | 0.164 ± 0.14 | 0.272 ± 0.16
GGCUAGCAAUAUUACGGGAU | -1.89 ± 0.089 | -1.03 ± 0.11
GGCUAGCAAUAUUACGGGCA | 0.122 ± 0.082 | 0.0658 ± 0.092
GGCUAGCAAUAUUACGGGCC | – | -1.98 ± 0.42
GGCUAGCAAUAUUACGGGGA | -2.17 ± 0.17 | -1.25 ± 0.17
GGCUAGCAAUAUUACGGGGC | -3.67 ± 0.47 | -2.08 ± 0.28
GGCUAGCAAUAUUACGGUAC | -1.91 ± 0.17 | -0.733 ± 0.14
GGCUAGCAAUAUUACGGUCA | -0.918 ± 0.1 | -0.851 ± 0.085
GGCUAGCAAUAUUACGGUCC | -4.11 ± 0.33 | -2.97 ± 0.28
GGCUAGCAAUAUUACGGUGA | -0.0349 ± 0.072 | 0.281 ± 0.086
GGCUAGCAAUAUUACGGUUG | -0.166 ± 0.076 | -0.197 ± 0.098
GGCUAGCAAUAUUACGUAAU | -0.265 ± 0.1 | 0.283 ± 0.12
GGCUAGCAAUAUUACGUACG | -0.805 ± 0.1 | 0.365 ± 0.11
GGCUAGCAAUAUUACGUAGU | -3.29 ± 0.17 | -2.04 ± 0.2
GGCUAGCAAUAUUACGUCUA | -0.349 ± 0.13 | -0.105 ± 0.11
GGCUAGCAAUAUUACGUGCC | -2.22 ± 0.25 | –
GGCUAGCAAUAUUACGUUAC | -1.55 ± 0.069 | -0.888 ± 0.093
GGCUAGCAAUAUUACGUUCC | -1.62 ± 0.11 | -0.39 ± 0.11
GGGAAGCAAUAUUACGAAUG | – | -0.92 ± 0.34
GGGAAGCAAUAUUACGAAUU | -0.943 ± 0.23 | -0.115 ± 0.21
GGGAAGCAAUAUUACGACAA | -2 ± 0.2 | -1.34 ± 0.19
GGGAAGCAAUAUUACGACUA | -0.9 ± 0.15 | 0.352 ± 0.17
GGGAAGCAAUAUUACGACUG | -0.222 ± 0.088 | -0.457 ± 0.11

Sequence | self-splicing fitness (ln) (30 °C) | self-splicing fitness (ln) (37 °C)
GGGAAGCAAUAUUACGAGUA | – | -2.29 ± 0.36
GGGAAGCAAUAUUACGAUAA | -1.61 ± 0.11 | -0.785 ± 0.15
GGGAAGCAAUAUUACGCUCA | – | -0.0289 ± 0.38
GGGAAGCAAUAUUACGCUGC | -2.83 ± 0.48 | –
GGGAAGCAAUAUUACGGAAC | -2.09 ± 0.2 | -2.13 ± 0.27
GGGAAGCAAUAUUACGGAUU | -0.965 ± 0.07 | -0.737 ± 0.1
GGGAAGCAAUAUUACGGCUC | -0.727 ± 0.12 | 0.0488 ± 0.17
GGGAAGCAAUAUUACGGGCC | -2.03 ± 0.14 | -0.949 ± 0.13
GGGAAGCAAUAUUACGUAGG | -3.64 ± 0.32 | -0.93 ± 0.11
GGGAAGCAAUAUUACGUCUC | -3.97 ± 0.37 | -3 ± 0.35
GGGAAGCAAUAUUACGUGCG | -1.4 ± 0.11 | -0.371 ± 0.13
GGGAAGCAAUAUUACGUUAC | -2.75 ± 0.15 | -1.15 ± 0.14
GGGCAGCAAUAUUACGAACG | -1.18 ± 0.12 | 0.475 ± 0.17
GGGCAGCAAUAUUACGAAUG | -2.93 ± 0.17 | -2.12 ± 0.23
GGGCAGCAAUAUUACGACAA | -1.53 ± 0.22 | -0.573 ± 0.18
GGGCAGCAAUAUUACGAGAU | -3.14 ± 0.23 | -2.41 ± 0.32
GGGCAGCAAUAUUACGAGGA | – | -2.97 ± 0.47
GGGCAGCAAUAUUACGAUCA | -1.56 ± 0.13 | -0.598 ± 0.15
GGGCAGCAAUAUUACGCCCG | -2.33 ± 0.23 | –
GGGCAGCAAUAUUACGCCUG | -1.27 ± 0.14 | 0.02 ± 0.13
GGGCAGCAAUAUUACGCGAG | -0.948 ± 0.094 | -0.664 ± 0.098
GGGCAGCAAUAUUACGCGUU | -0.662 ± 0.073 | -0.349 ± 0.087
GGGCAGCAAUAUUACGCUGG | -3.14 ± 0.14 | -2.53 ± 0.16
GGGCAGCAAUAUUACGCUUG | -0.914 ± 0.088 | 0.22 ± 0.13
GGGCAGCAAUAUUACGGGAC | -2.3 ± 0.18 | -1.61 ± 0.18
